We go through 1 substance from US20170029844A1.

The assay concerns the target Spodoptera frugiperda ABCc2 transporter (Spodoptera frugiperda). Description: cell-based or functional assay.

In the case of TIC105 toxin (wild type, unmodified), the relative fluorescence of SYTOX Green, Sf9 cells expressing the SfABCc2 transporter (relative fluorescence) was 57200.
